Source: patent publication CN1903878A (UNIV FUDAN, dated 2007)

Biological target: T1, 重组冠状病毒S蛋白 (SARS冠状病毒棘突蛋白部分片段, 氨基酸位点257~573) (SARS冠状病毒, UniProt P59594 257-573)
T1 construct: range 257-573; also called 重组S蛋白; 重组抗原S蛋白
Assay: SPR (Biacore 3000), recombinant S protein immobilised, Fab at 2.5-0.3125 μg/ml

B1: 抗冠状病毒人源性基因工程抗体Fab片段AS3-3 (Fab, V domains shown)
VH: EVKLVESGGGVVQPGRSLRLSCAASGFRFSTYAIHWVRQAPGKGLEWVARISHDGSQTHYADSVQGRFGVSRDNSNYTAYVQLNSLRPDDTAVYFCARAYSSTPDYGMDVWGQGTAVTVSS
VL: EIVMTQSPLSPVTLGQPASISCKSSQSLVDTNGNTYLIWFHQRPGQSPRRLIYQVSKRDSGVPDRFSGSGTDFTLKISRVEAEDVGVYFCMQGTYRPPTLGQGTKVEIKR
notes: also called 阳性克隆AS3-3; 抗SARS病毒人源性抗体IgG Fab片段
With B1 the Ka was 5.05e+07 M⁻¹, the Kd was 19.8 nM and the koff was 0.00306 s⁻¹. The kon was 154000 M⁻¹ s⁻¹.
